assay: soluble on expression in E. coli; label from the status in PepcDB or PDB records

Sequence | soluble on expression in E. coli
MGSSHHHHHHSSGLVPRGSHMLEADPLLAQLKQQLHSQTPRAEGVVKATEKGFGFLEVDAQKSYFIPPPQMKKVMHGDRIIAVIHSEKERESAEPEELVEPFLTRFVGKVQGKNDRLAIVPDHPLLKDAIPCRAARGLNHEFKEGDWAVAEMRRHPLKGDRSFYAELTQYITFGDDHFVPWWVTLARHNLEKEAPDGVATEMLDEGLVREDLTALDFVTIDSASTEDMNDALFAKALPDDKLQLIVAIADPTAWIAEGSKLDKAAKIRAFTNYLPGFNIPMLPRELSDDLCSLRANEVRPVLACRMTLSADGTIEDNIEFFAATIESKAKLVYDQVSDWLENTGDWQPESEAIAEQVRLLAQICQRRGEWRHNHALVFKDRPDYRFILGEKGEVLDIVAEPRRIANRIVEEAMIAANICAARVLRDKLGFGIYNVHMGFDPANADALAALLKTHGLHVDAEEVLTLDGFCKLRRELDAQPTGFLDSRIRRFQSFAEISTEPGPHFGLGLEAYATWTSPIRKYGDMINHRLLKAVIKGETATRPQDEITVQMAERRRLNRMAERDVGDWLYARFLKDKAGTDTRFAAEIVDISRGGMRVRLVDNGAIAFIPAPFLHAVRDELVCSQENGTVQIKGETVYKVTDVIDVTIAEVRMETRSIIARPVA | soluble
MGSSHHHHHHSSGLVPRGSHMSISRFGVNTENEDHLAKELEDLNKWGLNIFNVAGYSHNRPLTCIMYAIFQERDLLKTFRISSDTFITYMMTLEDHYHSDVAYHNSLHAADVAQSTHVLLSTPALDAVFTDLEILAAIFAAAIHDVDHPGVSNQFLINTNSELALMYNDESVLENHHLAVGFKLLQEEHCDIFMNLTKKQRQTLRKMVIDMVLATDMSKHMSLLADLKTMVETKKVTSSGVLLLDNYTDRIQVLRNMVHCADLSNPTKSLELYRQWTDRIMEEFFQQGDKERERGMEISPMCDKHTASVEKSQVGFIDYIVHPLWETWADLVQPDAQDILDTLEDNRNWYQSMIPQSPSPPLDEQNRDCQGLMEKFQFELTLDEEDSEGPEKEGEGHS | soluble
MGSSHHHHHHSSGLVPRGSHMSQFSFTKMHGLGNSYIYVNMFEEQIPEEDLALVAEKVSNINTGIGADGMILICPSDVAPVKMRMFNNDGSEGKSCGNGLRCVAKYAYEHKLVEDTVFTIETLAGIVTAEVTVEEGKVTLAKIDMGAPRLTRAEIPMLGEGETPFIRENFLYNNHRYAFTAVSMGNPHAVIFVDDVEQAPLTTLGPVLETHEMFPERVNVEFIEILNEEEMNFRVWERGSGVTQACGTGACAAVVASILNGKMERGKEITVHLAGGDLMIAWTEEGNVLMKGPAEVICRGVYEYKIEA | soluble
MGSSHHHHHHSSGLVPRGSHMSRAYDLVVLGAGSGGLEAGWNAAVTHKKKVAVVDVQATHGPPLFAALGGTCVNVGCVPKKLMVTGAQYMDLIRESGGFGWEMDRESLCPNWKTLIAAKNKVVNSINESYKSMFADTEGLSFHMGFGALQDAHTVVVRKSEDPHSDVLETLDTEYILIATGSWPTRLGVPGDEFCITSNEAFYLEDAPKRMLCVGGGYIAVEFAGIFNGYKPCGGYVDLCYRGDLILRGFDTEVRKSLTKQLGANGIRVRTNLNPTKITKNEDGSNHVHFNDGTEEDYDQVMLAIGRVPRSQALQLDKAGVRTGKNGAVQVDAYSKTSVDNIYAIGDVTNRVMLTPVAINEGAAFVETVFGGKPRATDHTKVACAVFSIPPIGTCGMTEEEAAKNYETVAVYASSFTPLMHNISGSKHKEFMIRIITNESNGEVLGVHMLGDSAPEIIQSVGICMKMGAKISDFHSTIGVHPTSAEELCSMRTPAYFYESGKRVEKLSSNL | soluble
MGSSHHHHHHSSGLVPRGSHMTPKDDEFYQQWQLKYPKLILREASSVSEELHKEVQEAFLTLHKHGCLFRDLVRIQGKDLLTPVSRILIGNPGCTYKYLNTRLFTVPWPVKGSNIKHTEAEIAAACETFLKLNDYLQIETIQALEELAAKEKANEDAVPLCMSADFPRVGMGSSYNGQDEVDIKSRAAYNVTLLNFMDPQKMPYLKEEPYFGMGKMAVSWHHDENLVDRSAVAVYSYSCEGPEEESEDDSHLEGRDPDIWHVGFKISWDIETPGLAIPLHQGDCYFMLDDLNATHQHCVLAGSQPRFSSTHRVAECSTGTLDYILQRCQLALQNVCDDVDNDDVSLKSFEPAVLKQGEEIHNEVEFEWLRQFWFQGNRYRKCTDWWCQPMAQLEALWKKMEGVTNAVLHEVKREGLPVEQRNEILTAILASLTARQNLRREWHARCQSRIARTLPADQKPECRPYWEKDDASMPLPFDLTDIVSELRGQLLEAKP | soluble

Reference: the DeepSol protein solubility set
